Measurements: the DeepSol protein solubility set

experiment: soluble on expression in E. coli; label from the status in PepcDB or PDB records

Row | Sequence | soluble on expression in E. coli
1 | SGFEFHGYARSGVIMNDSGASTKSGAYITPAGETGGAIGRLGNQADTYVEMNLEHKQTLDNGATTRFKVMVADGQTSYNDWTASTSDLNVRQAFVELGNLPTFAGPFKGSTLWAGKRFDRDNFDIHWIDSDVVFLAGTGGGIYDVKWNDGLRSNFSLYGRNFGDIDDSSNSVQNYILTMNHFAGPLQMMVSGLRAKDNDERKDSNGNLAKGDAANTGVHALLGLHNDSFYGLRDGSSKTALLYGHGLGAEVKGIGSDGALRPGADTWRIASYGTTPLSENWSVAPAMLAQRSKDRYADGDSYQWATFNLRLIQAINQNFALAYEGSYQYMDLKPEGYNDRQAVNGSFYKLTFAPTFKVGSIGDFFSRPEIRFYTSWMDWSKKLNNYASDDALGSDGFNSGGEWSFGVQMETWF | soluble
2 | MSLTQTPNTGSPHRVVIVGGGAGGLELAAKLGRAHGRERVTLVDSRPFHIWKPSLHEAAAGTLDIHQEGLSYLMLANMCNFTFAQGELQGIERERRQIQVGPVADPSGQQVLPPRELSYDTLVLAMGSTSNFFNTPGAAEHAVTLDTTENAEQFRLTMLKAMVQVDLRKVHDPSARLDLVIVGGGATGVELAVELIEASHVVSAYGLPNFRADRDLVITLVEGAPRILSALPEKISRAAHARLTELGVRVETDCRVAEVGADHVVTADGRRFEATMCLWAAGIEGPPLFRQLGLPLNRLGQLEVNERLESPDPHILALGDCCAAPWKDGRTVPARAQAAHQQADYLARKLTARLRNAAEPTEAYAYHDHGSLVSLGQGSGVGSLMGKLAGRGLFVSGTLARLMYMSLHLMHHRAVLGISRTATLALARLLMRRTRPRVKLHEGHHHHHH | soluble
3 | MIVTKDYSKESRVNENSKYGTLISDWYLKGRLTSLESQFINALDILETYHYGEKEYKDAKDKLMTRILGEDQYLLERKKVQYEEYKKLYQKYKEENPTSKLKLKTFDQYTIEDLTMREYNELTESLKSAVKDFEKDVEKIENQHHDLKPFTDEMEEKATSRVDDLANKAYSVYFAFVRDTQHKTEALELKAKVDLVLGDEDKPHRISNERIEKEMIKDLESIIEDFFIETGLNKPGNITSYDSSKHHYKNHSEGFEALVKETREAVANADESWKTKTVKKYGESETKSPVVKEENKVEDPQSPKFDNQQEVKTTAGKAEETTQPVAQPL | soluble
4 | MLSSTCTAAVRGLSTTAQLSKINNVTIIGAGLMGSGIAQVSANAKLNVTVVDSNQSALEKAQQGIANSLKRVAKKKHADDAAAQTALVSSVLDRIKMSTNVSDSVKDADLVIEAIVENIDIKRKLFAEVEVAAKPTTLITTNTSSLRLADIGLNLKDKSRFGGLHFFNPVPMMKLLEVVRHTETSDATFNQLVDYGKTVGKTTVACKDTPGFIVNRLLVPYMFEALRLYERGDASMEDIDVAMKLGAGYPMGPFELSDYVGLDTCKFIMDGWHAQYPEEVAFTPSPLLNSLVDSGKNGRKSGEGFYKYK | not soluble
5 | SMLGPEGGEGFVVKLRGLPWSCSVEDVQNFLSDCTIHDGAAGVHFIYTREGRQSGEAFVELGSEDDVKMALKKDRESMGHRYIEVFKSHRTEMDWVLKHSGPNSADSANDGFVRLRGLPFGCTKEEIVQFFSGLEIVPNGITLPVDPEGKITGEAFVQFASQELAEKALGKHKERIGHRYIEVFKSSQEEVRSYSDPPLKFMSVQRPGPYDRPGTARRYIGIVKQAGLERMRPGAYSTGYGGYEEYSGLSDGYGFTTDLFGRDLSYCLSGMYDHRYGDSEFTVQSTTGHCVHMRGLPYKATENDIYNFFSPLNPVRVHIEIGPDGRVTGEADVEFATHEEAVAAMSKDRANMQHRYIELFLNSTTGASNGAYSSQVMQGMGVSAAQATYSGLESQSVSGCYGAGYSGQNSMGGYD | soluble
6 | MDLQHWQAQFENWLKNHHQHQDAAHDVCHFRRVWATAQKLAADDDVDMLVILTACYFHDIVSLAKNHPQRQRSSILAAEETRRLLREEFEQFPAEKIEAVCHAIAAHSFSAQIAPLTTEAKIVQDADRLEALGAIGLARVFAVSGALGVALFDGEDPFAQHRPLDDKRYALDHFQTKLLKLPQTMQTARGKQLAQHNAHFLVEFMAKLSAELAGENEGVDHKVIDAFSSAGLEHHHHHH | soluble
7 | MPKAKAKTKNTEIISPHHYVYPNTTTLKNKYGIKNLNAFLEKCSHDTAKAMINLREESLPEYFDTAYLCHIHQQLFKNTFEWAGYLRHIPFTFADGTTAAMPEMKRTGWKNAFAIGDEIQEGLQRLDQTLAEKNNLQGLTREEFNSEAIELFNSLNQLHPFREGNGRTQRLFFENLAKAAGHQLNFSLITKERMMVASVAVAENGDLEPMQHLFEDISNPEKIRLLKEFMHTMKNTGRNVNDRPVMVAKEGETYTGTYRGAGLEGFALNVKGAYIIGNIDHLPPEQLKILKPGDKITFTAPK | soluble
